Values quoted from earlier work, collected in EP4748396A1, “PHARMACEUTICAL COMPOSITION CONTAINING ANTI-NECTIN4 ANTIBODY-DRUG CONJUGATE AND ANTI-PD-1 ANTIBODY AND USE THEREOF” (priority 2023, dated 2025).

Details: 2019 FDA announcement

In the case of Enfortumab Vedotin [PADCEV], the skin adverse reactions is listed as “may cause severe skin adverse reactions, including Stevens-Johnson syndrome (SJS) and toxic epidermal necrolysis (TEN)”.
